We go through 5 molecules from patent US20180022822A1, “NOVEL ANTI-FIBROBLAST ACTIVATION PROTEIN (FAP) BINDING AGENTS AND USES THEREOF” (Mabimmune Diagnostics AG, priority 2016, published 2018).

Numbering of substitutions follows the chain as printed.

Assay [1] deals with directly coated FAP peptides mixture (cFAP). The assay is described as follows: direct ELISA on coated mixture of FAP peptides. Format: binding, human. The conditions noted are these: peptides 378-392, 622-636, 721-736. The method, then: (§1) ELISA assays were performed with varying antibody concentrations to validate the binding of the exemplary antibodies of the present invention to FAP and to be able to determine their half maximal effective concentration (EC50). For the exemplary recombinant human NI-206-18H2, NI-206-20A8, NI-206-6D3, ‘NI-206-14C5, NI-206-34C11, NI-206.82C2, NI-206.59B4, NI-206.22F7, NI-206.27E8, NI-206.12G4 and NI-206.17A6 antibodies, 96-well microplates (Costar, Corning, USA) were coated with FAP, with a mixture of the 3 peptides or with BSA (Sigma-Aldrich, Buchs, Switzerland) diluted to a concentration of 5 μg/ml in carbonate ELISA coating buffer (15 mM Na2CO3, 35 mM NaHCO3, pH 9.4) for the direct ELISA. For the capture ELISA, the microplates were coated with mouse anti-His monoclonal antibody (Clontech) diluted to a concentration of 3 μg/ml in PBS, the plates were then blocked, FAP or BSA were diluted to a concentration of 2 μg/ml in PBS and added to the plates to be captured. The binding efficiency of the antibodies was then tested.
(§2) The EC50 values were estimated by a non-linear regression using GraphPad Prism (San Diego, USA) software. […] The binding of NI-206.12G4 towards sFAP was not tested.

In assay [2] the target is T1, transmembrane human FAP on FAP expressing HEK293 cells (Homo sapiens, UniProt Q12884).
T1 construct: HEK293 cells were transduced with retrovirus encoding full length human FAP cDNA; host or cells: HEK293 (retroviral transduction, G418 selected)
T1 sequence (Q12884 1-760): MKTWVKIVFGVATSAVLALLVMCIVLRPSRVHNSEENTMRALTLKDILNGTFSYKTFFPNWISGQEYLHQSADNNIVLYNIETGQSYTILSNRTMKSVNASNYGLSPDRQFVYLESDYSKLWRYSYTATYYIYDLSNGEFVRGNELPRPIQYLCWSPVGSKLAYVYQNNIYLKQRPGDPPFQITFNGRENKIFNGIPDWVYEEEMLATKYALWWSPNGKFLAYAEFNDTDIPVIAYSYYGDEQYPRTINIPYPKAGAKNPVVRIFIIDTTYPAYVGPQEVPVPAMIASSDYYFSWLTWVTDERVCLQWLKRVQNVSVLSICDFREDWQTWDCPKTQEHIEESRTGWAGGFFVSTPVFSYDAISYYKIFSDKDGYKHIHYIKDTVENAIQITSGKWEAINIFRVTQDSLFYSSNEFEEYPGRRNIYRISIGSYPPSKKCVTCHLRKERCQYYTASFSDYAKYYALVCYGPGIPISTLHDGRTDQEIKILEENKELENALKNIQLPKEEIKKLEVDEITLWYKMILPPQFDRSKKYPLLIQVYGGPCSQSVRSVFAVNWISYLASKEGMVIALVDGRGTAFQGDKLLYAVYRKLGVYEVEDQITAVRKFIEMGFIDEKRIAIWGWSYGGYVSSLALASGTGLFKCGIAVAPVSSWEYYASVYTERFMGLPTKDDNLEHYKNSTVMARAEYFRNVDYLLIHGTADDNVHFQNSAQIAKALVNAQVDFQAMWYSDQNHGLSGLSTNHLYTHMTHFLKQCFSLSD
Kind of assay: flow cytometry of Cy5 labelled antibodies on FAP-HEK293 cells in pH adjusted PBS. Format: cell-based. The conditions noted are these: pH 7.4 to 6.2; 0.1-100 nM Cy5 labelled antibody. On the procedure: To evaluate the binding of NI-206.82C2, NI-206.59B4, NI-206.27E8, NI-206.12G4, NI-206.18H2 and NI-206.6D3 to transmembrane human FAP, an FAP expressing HEK293 cell line was received from the National Institutes of Health, Bethesda, Md. The generation of this FAP expressing HEK293 cells is described in: J. Exp. Med. 2013 Vol. 210 No. 6 1125-1135. HEK293 cells were transduced with retrovirus encoding full length human FAP cDNA. Cloning was performed using Fast Cloning Pack and FastDigest restriction enzymes (both from Fermentas). Transient retroviral supernatants were generated by transfecting 293GP cells with the FAP plasmid using Lipofectamine 2000 (Invitrogen). Retroviral supernatants were collected at 48 h after transfection and centrifuged onto Retronectin-coated (10 μg/ml; Takara), non-tissue culture-treated 6-well plates at 2,000 G for 2 h at 32° C. These retroviral supernatants where then used to transduce HEK293 cells overnight. Transduced FAP-HEK293 cells were selected with 1 mg/ml G418 (CellGro).
500′000 FAP-HEK293 cells were incubated for 1 hr at 4° C. either with Cy5 labelled NI-206.82C2, NI-206.59B4, NI-206.27E8, NI-206.12G4, NI-206.18H2 or NI-206.6D3 or with Cy5 labelled 43A11 at four different antibody concentrations (0.1, 1, 10, and 100 nM) in seven different pH-adjusted PBS buffers (pH 7.4, 6.8, 6.6, 6.5, 6.4, 6.3 and 6.2). PBS buffers were adjusted to using MES monohydrate (Sigma Aldrich). Following incubation, cells were washed 3 times with 200 uL in matched pH-adjusted PBS, spun at 400G for 4 min, and resuspended in 200 μL of pH adjusted buffer.
To analyze antibody binding, fluorescent activated flow cytometry was performed using a BD Fortesa device for forward scatter, side scatter, and the mean fluorescent intensity (MFI) of the Cy5 channel was recorded using a […] laser excitation and 600/20 filter. Viable cells were gated by forward and side scatter, and singlets/doublet exclusion, and the MFI for Cy5 was quantified using FlowJo software Version 10.1.

The target of a further assay is T2, captured FAP (sFAP) (Homo sapiens, UniProt Q12884).
T2 sequence (Q12884 1-760): T1 sequence (Q12884 1-760)
The assay is described as follows: capture ELISA, FAP captured via his-tag with coated anti-His antibody. In kind it is binding. The method, then: as §1, §2
In general terms: In an ELISA, binding on a coated surface is turned into a signal by an enzyme label.

Assay [3] addresses T3, directly coated FAP (FAP) (Homo sapiens, UniProt Q12884).
T3 sequence (Q12884 1-760): T1 sequence (Q12884 1-760)
Kind of assay: direct ELISA on directly coated FAP. In kind it is binding. On the procedure: as §1, §2

The next assay has as its target T4, BSA (Bos taurus, UniProt P02769).
T4 construct: purchased Sigma-Aldrich
Kind of assay: ELISA control binding to BSA. On the set-up: species or system bovine. On the procedure: as §1

The mark [4] stands for this setting: ELISA, varying antibody concentrations.

T4 sequence (P02769 25-607): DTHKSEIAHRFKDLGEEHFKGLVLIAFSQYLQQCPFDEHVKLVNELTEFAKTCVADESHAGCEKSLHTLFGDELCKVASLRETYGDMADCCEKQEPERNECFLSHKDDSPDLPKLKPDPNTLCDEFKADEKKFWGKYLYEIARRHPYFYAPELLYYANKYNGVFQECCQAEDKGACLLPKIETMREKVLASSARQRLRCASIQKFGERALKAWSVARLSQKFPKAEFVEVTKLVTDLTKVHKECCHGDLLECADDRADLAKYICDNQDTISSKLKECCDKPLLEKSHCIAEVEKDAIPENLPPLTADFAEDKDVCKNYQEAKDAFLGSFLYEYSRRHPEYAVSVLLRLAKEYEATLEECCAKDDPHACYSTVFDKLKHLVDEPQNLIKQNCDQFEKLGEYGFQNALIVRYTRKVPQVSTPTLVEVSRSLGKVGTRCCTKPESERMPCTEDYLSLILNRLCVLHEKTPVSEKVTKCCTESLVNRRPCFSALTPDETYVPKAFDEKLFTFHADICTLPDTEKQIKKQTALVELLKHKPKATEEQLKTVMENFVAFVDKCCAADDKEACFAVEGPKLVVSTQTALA

B1: NI-206.27E8: human-derived recombinant anti-FAP antibody; VH SEQ ID NO: 16, VL SEQ ID NO: 18 (antibody, listed as Homo sapiens, V domains shown)
VH: EVQLVESGGGLVEPGGSLRLSCAASGFTFSDAWMNWVRQAPGKGLEWVGRIKTKSDGGTTDYAAPVRGRFSISRDDSKNTLFLEMNSLKTEDTAIYYCFITVIVVSSESPLDHWGQGTLVTVSS
VL: SYELTQPPSVSVSPGQTARITCSGDELPKQYAYWYQQKPGQAPVLVIYKDRQRPSGIPERFSGSSSGTTVTLTISGVQAEDEADYYCQSAYSINTYVIFGGGTKLTVL
With B1, the “EC50 to the directly coated FAP peptides mixture (cFAP)” value (shortened to “EC50 … (cFAP)”) in assay [1] was “did not show any binding”. Also, the “paratope-specific avidity (ΔMFI) under acidic conditions vs. at pH 7.4” value in assay [2] was “increased”.

B2: NI-206.12G4: human-derived recombinant anti-FAP antibody; VH SEQ ID NO: 20, VL SEQ ID NO: 22 (antibody, listed as Homo sapiens, V domains shown)
VH: EVQLVESGGGLVKPGGSLRLSCAASGFTFSDYYMSWIRQAPGKGLEWISYISSGSSYTNYADSVKGRFTISRDNAKKSVYLEVNGLTVEDTAVYYCARVRYGDREMATIGGFDFWGQGTLVTVSS
VL: B1 VL with E26A, K38S, R51S, Q52E, Y91D, I93G, N94G, Y96S, V97R
Consider B2, for which the “EC50 … (cFAP)” value in assay [1] is reported as “did not show any binding”. Besides, in assay [2], the “paratope-specific avidity (ΔMFI) under acidic conditions vs. at pH 7.4” value is listed as “decreases”.

B3: NI-206.59B4: human-derived recombinant anti-FAP antibody; VH SEQ ID NO: 8, VL SEQ ID NO: 10 (antibody, listed as Homo sapiens, V domains shown)
VH: QVQLVQSGAEVKKPGASVKVSCKTSGYTFTDYYIHWVRQAPGQGLEWMGWINPNRGGTNYAQKFQGRVTMTRDTSIATAYMELSRLRSDDTAVYYCATASLKIAAVGTFDCWGQGTLVTVSS
VL: SYELTQPPSVSVSPGQTARITCSGDALSKQYAFWFQQKPGQAPILVIYQDTKRPSGIPGRFSGSSSGTTVTLTISGAQADDEADYYCQSADSSGTYVFGTGTKVTVL
On to B3, for which the “binding to the captured FAP” value with captured FAP (sFAP) (setting [4]) is “specifically, strongly and similarly bind”. Also, the “binding to the directly coated FAP” value in assay [3] (setting [4]) is “specifically, strongly and similarly bind”. The “EC50 … (cFAP)” value in assay [1] is “did not show any binding”. In addition, in the assay with BSA, the “binding to BSA” value is listed as “does not bind”. Also, the “paratope-specific avidity (ΔMFI) under acidic conditions vs. at pH 7.4” value in assay [2] is on record as “increased”.

B4: NI-206.17A6: human-derived recombinant anti-FAP antibody; VH SEQ ID NO: 24, VK SEQ ID NO: 26 (antibody, listed as Homo sapiens, V domains shown)
VH: QVQLQESGPGLVRSTETLSLTCLVSGDSINSHYWSWLRQSPGRGLEWIGYIYYTGPTNYNPSLKSRVSISLGTSKDQFSLKLSSVTAADTARYYCARNKVFWRGSDFYYYMDVWGKGTTVTVSS
VL: EIVLTQSPGTLSLSLGERATLSCRASQSLANNYLAWYQQKPGQAPRLLMYDASTRATGIPDRFSGSGSGTDFTLTISRLEPEDFAVYYCQQFVTSHHMYIFGQGTKVEIK
In the case of B4, in assay [1], the “EC50 … (cFAP)” value is reported as “did not show any binding”.

B5: NI-206.22F7: human-derived recombinant anti-FAP antibody; VH SEQ ID NO: 12, VL SEQ ID NO: 14 (antibody, listed as Homo sapiens, V domains shown)
VH: EVQLVETGGGVVQPGRSLRLSCAASGFSFSTHGMYWVRQPPGKGLEWVAVISYDGSDKKYADSVKGRFTISRDNSKNTVYLEMSSVRAEDTALYYCFCRRDAFDLWGQGTMVTVSS
VL: SYVLTQPPSVSVSPGQTARITCSGDALPKKYAYWYQQKSGQAPVLVIYEDTKRPSGIPERFSGSSSGTMATLTISGAQVEDEADYYCYSTDSSGNYWVFGGGTEVTVL
Regarding B5, the “EC50 to the captured FAP (sFAP)” value with captured FAP (sFAP) (capture ELISA, non-linear regression, GraphPad Prism) is “did not show any binding”. Moreover, the “EC50 to the directly coated FAP (FAP)” value in assay [3] (direct ELISA, non-linear regression, GraphPad Prism) was “did not show any binding”.
